Experimental data: US6723697B2, “IL-16 antagonists” (Research Corporation Technologies, Inc., priority 1999, dated 2004)
Values belong to the molecule of their own block, whether it stands above or below them.

Columns and labels:
rIL-16 = target: T1, rIL-16 (Mus musculus, UniProt O54824); experiment: IL-2R (CD25) induction on rIL-16-stimulated murine splenocytes, flow cytometry; assay type: cell-based; details: for % IL-2R+ CELLS: IL-16 + peptide, concentration not given (10^-6 M or 10^-7 M)
T1 construct: polyhistidine fusion protein containing the 119 C-terminal residues encoded by the previously reported murine cDNA; polyhistidine (cleaved yes); made in house; host or cells: Escherichia coli strain HMS 174, vector pET16b
T1 sequence (O54824 1204-1322): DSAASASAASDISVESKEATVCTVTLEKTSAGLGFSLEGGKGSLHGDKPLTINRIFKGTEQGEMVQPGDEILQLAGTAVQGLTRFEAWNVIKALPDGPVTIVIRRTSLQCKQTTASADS
Description: Induction of IL-2R (CD25) on rIL-16-stimulated murine splenocytes was detected by staining with FITC-conjugated anti-mouse IL-2R Ab (PharMingen). Cells were fixed with 10% formalin and stored at 4° C. in the dark before analysis with a Becton Dickinson FACScan 440 flow cytometer. The % IL-2R^+ cells was determined by subtracting the % isotype control positive from the total % positive events.
Peptides A (SEQ ID NO:15) and C (SEQ ID NO:19) were inhibitory at 10^−7 M, but not 10^−6 M. The negative control peptide D (SEQ ID NO:20) (10^−6 M) had no effect on rIL-16-stimulated IL-2R expression.
Murine splenocytes were incubated in control buffer, rIL-16 alone, or rIL-16 plus the indicated peptide. IL-2R expression was determined by flow cytometry using FITC-conjugated anti-IL-2R antibody. The % IL-2R^+ was determined by subtracting the FITC-conjugated isotype control antibody binding from the FITC-conjugated anti-IL-2R antibody binding. Isotype control antibody binding ranged from 1% to 4%.

[1] = target: T2, rIL-16 / GST-murine D3D4 fusion protein (Mus musculus, UniProt O54824); experiment: in vitro binding of 35S-labeled murine rIL-16 to GST-murine D3D4 fusion protein; details: each peptide 10^-5 M, 10 ug/ml
T2 construct: murine IL-16 cDNA construct in pET-16b expressing the C-terminal 119 amino acids of IL-16; polyhistidine (pET-16b vector); made in house; host or cells: IL-16: coupled in vitro transcription-translation (TNT T7, Promega); GST-D3D4: E. coli, vector pGEX-5X.1
T2 sequence (O54824 1205-1322 limits assumed): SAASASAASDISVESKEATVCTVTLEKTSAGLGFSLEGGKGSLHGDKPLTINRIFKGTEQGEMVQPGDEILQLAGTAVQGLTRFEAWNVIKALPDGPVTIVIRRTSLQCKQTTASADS
Description: Complexes were isolated by centrifugation, then bound rIL-16 was released by boiling in SDS-PAGE buffer, resolved by SDS-PAGE, and detected by autoradiography. Specificity of the interaction between rIL-16 and D3D4 was assessed by competition with an excess of unlabeled rIL-16. ^35S-labeled rIL-16 incubated with GST (lane 1); ^35S-labeled rIL-16 incubated with GST-D3D4 (lane 2); ^35S-labeled rIL-16 plus excess unlabelled rIL-16 incubated with GST-D3D4 (lane 3); ^35S-labeled rIL-16 plus10 ug/ml peptide A (lane 4); ^35S-labeled rIL-16 plus 10 ug/ml peptide B (lane 5); ^35S-labeled rIL-16 plus 10 ug/ml peptide C (lane 6); ); ^35S-labeled rIL-16 plus 10 ug/ml peptide A and peptide B (lane 7). The arrow indicates the position of IL-16 on the gel. The identity of this band was re-confirmed by immunoblotting with anti-IL-16 antibody.
Radiolabeled murine IL-16 was prepared by in vitro translation and transcription (TNT T7, Promega) of a murine IL-16 cDNA construct in pET-16b expressing the C-terminal 119 amino acids of IL-16. Each coupled transcription-translation reaction was conducted in medium supplemented with [^35S]methionine according to the manufacturer's instructions.
A glutathione-S-transferase (GST)-murine D3D4 fusion protein was produced by subcloning the murine D3D4 domain cDNA sequences encoding the CD4 protein open reading frame from Phe^182 to Phe^372 into pGEX-5X.1 (Pharmacia). The GST-D3D4 fusion protein was purified according to the Pharmacia GST-fusion protein purification protocol using glutathione-conjugated Sepharose 4B beads in the presence of 2 mM dTT. […]
To investigate IL-16 interaction with the D3D4 of CD4, the GST-D3D4 fusion protein, or GST alone, was bound to the glutathione-conjugated Sepharose 4B beads. […] The GST-D3D4 or GST proteins were released from the beads by boiling in SDS gel loading buffer, and the supernatant was analyzed by 12% SDS-polyacrylamide gel electrophoresis (SDS-PAGE). The presence of ^35S-labeled mrIL16 was detected by autoradiography of the dried gel. […]

murine rIL-16 [2] = target: T3, murine rIL-16 (Mus musculus, UniProt O54824); experiment: murine rIL-16-stimulated murine splenocyte migration, modified Boyden chamber; assay type: cell-based; details: rIL-16 10^-9 M; for IL-16-inhibitory activity (block of murine rIL-16-stimulated murine splenocyte migration): peptide concentration not given
T3 construct: polyhistidine fusion protein containing the 119 C-terminal residues encoded by the previously reported murine cDNA; polyhistidine (cleaved yes); made in house; host or cells: Escherichia coli strain HMS 174, vector pET16b
T3 sequence (O54824 1204-1322): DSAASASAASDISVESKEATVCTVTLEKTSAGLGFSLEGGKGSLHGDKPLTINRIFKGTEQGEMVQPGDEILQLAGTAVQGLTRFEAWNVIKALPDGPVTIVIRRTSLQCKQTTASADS
Description: (§1) Cell migration was assessed using a modified Boyden chamber. […] Cell migration is expressed as the mean % control migration.
(§2) Results from multiple experiments were analyzed using Student's t test for paired variables, and Tukey's test for multiple variables. A P value<0.05 was considered significant.
Peptide B (aa 341-352) includes the sequence WQCLLS (residues 344-349, SEQ ID NO:4) which is 100% conserved in all the species examined. Peptide A (aa 327-338) and peptide C (aa 351-362) correspond to the N-terminal and C-terminal flanks of peptide B, respectively. A random scrambled 12-residue peptide (LSKQKMVSREGT) designated peptide D (SEQ ID NO:20) was used a negative control for nonspecific effects of peptide administration on splenocyte motility. Criteria for the design of peptide D included overall hydrophilicity, neutral charge and no cysteine residues (to prevent possible dimer formation).
Murine spleens were harvested from healthy 8-week male BALB/c mice (Jackson Laboratory). Splenocytes were isolated by grinding spleens between fiysted slides in M199 culture medium (M. A. Bioproducts), supplemented with 0.4% bovine serum albumin, 22 mM HEPES buffer, 100 with U/ml of penicillin, 100 μg/ml streptomycin (M199-HPS). Cells were washed and erytbrocytes were lysed in Gey's solution. Splenocytes were washed twice in M199, and resuspended to a final concentration of 2×10^6 cells/ml in RPMI1640 medium (BioWhittaker) supplemented with 10% FBS, 100 U/ml of penicillin and 100 μg/ml of streptomycin. By flow cytometry, 25% of the isolated splenocytes within the lymphocyte-cloud were CD4^+.
Recombinant murine IL-16 was produced in Escherichia coli (strain HMS 174; Novagen) as a polyhistidine fusion protein containing the 119 C-terminal residues encoded by the previously reported murine cDNA (Keane et al., (1998) J. Immunol. 160: 5945-5954), using the bacterial expression vector pET16b (Novagen). The recombinant product corresponds to the secreted form of natural murine IL-16 following cleavage by caspase-3 (Zhang et al. (1998) J. Biol. Chem. 273:1144-1149). The rIL-16 was purified by metal chelation chromatography, and the polyhistidine tag was cleaved with factor Xa (New England Biolabs).

IL-16 = target: T4, IL-16 (Mus musculus, UniProt O54824); experiment: IL-16-induced migration of human T-cells; assay type: cell-based; details: for effect on IL-16-induced migration of human T-cells: any concentration; for inhibition of IL-16-mediated biological activity (migration of human T-cells): concentration not given
T4 construct: polyhistidine fusion protein containing the 119 C-terminal residues encoded by the previously reported murine cDNA; polyhistidine (cleaved yes); made in house
T4 sequence (O54824 1204-1322): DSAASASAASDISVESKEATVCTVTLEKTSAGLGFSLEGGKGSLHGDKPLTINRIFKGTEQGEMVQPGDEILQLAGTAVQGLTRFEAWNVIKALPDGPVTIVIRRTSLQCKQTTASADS

murine rIL-16 [3] = target: T3, murine rIL-16; experiment: IL-16-stimulated T-lymphocyte migration, human CD4 D4 point mutants; assay type: cell-based; details: human CD4 D4 wild type or point mutant, rIL-16 10^-9 M
Description: Point mutations at Leu 348 and Leu 349 in human CD4 were prepared as follows.
Initially 100 ng of wild type human CD4 cDNA (Richard Axel, Columbia University, N.Y.) contained within the mammalian expression vector pcDNA3.1(−) (Invitrogen, Carlsbad, Calif.) was subjected to the polymerase chain reaction (PCR) in the presence of 125 ng of each set of primer pairs. PCR conditions were as follows:
The time for the elongation step varied according to the relationship of 2 minutes per kilobase of plasmid DNA length. The product was then subjected to restriction digestion with the enzyme Dpn for 1 h. at 37° C. Dpn is specific for methylated nucleotides and therefore will only cut the original wide type CD4-plasmid DNA. The transformation reaction required the addition of 1 μl of the digest to 50 μl of Epicurean Blue Eschericia coli which was incubated on ice for 30 min. and finally heat shocked 42° C., 45 sec to seal the supercompent bacteria. The resultant bacteria culture was selected on ampicillin plates and sequenced to confirm mutagenesis.
as §1, §2
(FIGS. 10A and 10B). […] (FIGS. 11A and 11B).

[4] = first line of the peptide's pair
[5] = second line of the peptide's pair

Molecule: KVSKREKAVWVLNPEA (OTHER INFORMATION: Description of Artificial Sequence:IL-16 antagonist peptide) [16-mer of human CD4 D4]
effect on IL-16-induced migration of human T-cells (IL-16): failed to effect

Molecule: GMWQCLLS (OTHER INFORMATION: Description of Artificial Sequence:IL-16 antagonist peptide) [aa 343-350 of human CD4]
inhibition of IL-16-mediated biological activity (migration of human T-cells) (IL-16): inhibited all

Molecule: TSPKLMLSLKLENKEA (OTHER INFORMATION: Description of Artificial Sequence:IL-16 antagonist peptide) [16-mer of human CD4 D4]
effect on IL-16-induced migration of human T-cells (IL-16): failed to effect

Molecule: GMWQCLLSDSGQVLLE (OTHER INFORMATION: Description of Artificial Sequence:IL-16 antagonist peptide) [aa 343-358 of human CD4 D4]
concentration at which maximal inhibition was achieved (IL-16; dose curve, IL-16-induced migration of human T-cells): ≥ 10 µg/mL | block of IL-16-induced migration of human T-cells (IL-16; peptide 10^-10 M): blocked all

B1: NLTCEVWGPTSPKLMLSLKLENKEAKVSKREKAVWVLNPEAGMWQCLISDSGQVLLESNIKVLPTWSTPVQPM (peptide)
chain: NLTCEVWGPTSPKLMLSLKLENKEAKVSKREKAVWVLNPEAGMWQCLISDSGQVLLESNIKVLPTWSTPVQPM
modifications: OTHER INFORMATION: Description of Artificial Sequence:IL-16 antagonist peptide
notes: human CD4 D4 with Isoleucine substituted at position 349
inhibition of IL-16-stimulated T-lymphocyte migration (murine rIL-16 [3]): maintained partial ability to inhibit | inhibition of IL-16-stimulated T-lymphocyte migration (murine rIL-16 [3]; listed as Leucine 349 was conservatively substituted with Isoleucine): Partial inhibition

More lines, now with the values ahead:

% IL-2R+ CELLS (rIL-16; [4]): 22% | % IL-2R+ CELLS (rIL-16; [5]): 26% | inhibition of IL-16-stimulated induction of IL-2R (rIL-16; peptide 10^-6 M): completely inhibited | inhibition of IL-16-stimulated induction of IL-2R (rIL-16; peptide 10^-7 M): completely inhibited | IL-16 binding to GST-D3D4 in the presence of peptide [1]: reduced to background | IL-16-inhibitory activity (block of murine rIL-16-stimulated murine splenocyte migration) (murine rIL-16 [2]): IL-16-inhibitory activity
Molecule: TGLWQCLLSEGD (OTHER INFORMATION: Description of Artificial Sequence:IL-16 antagonist peptide) [peptide B, 12-residue peptide, aa 341-352 of mouse CD4 D4]

% IL-2R+ CELLS (rIL-16; [4]): 21% | % IL-2R+ CELLS (rIL-16; [5]): 37% | inhibition of IL-16-stimulated induction of IL-2R (rIL-16; peptide 10^-7 M): inhibitory | IL-16 binding to GST-D3D4 in the presence of peptide [1]: reduced to background | inhibition of rIL-16-induced splenocyte migration (murine rIL-16 [2]; peptide 10^-6 M): inhibited | IL-16-inhibitory activity (block of murine rIL-16-stimulated murine splenocyte migration) (murine rIL-16 [2]): IL-16-inhibitory activity
Molecule: VSEEQKVVQVVA (OTHER INFORMATION: Description of Artificial Sequence:IL-16 antagonist peptide) [peptide A, 12-residue peptide, aa 327-338 of mouse CD4 D4]

inhibition of IL-16-mediated biological activity (migration of human T-cells) (IL-16): failed to inhibit
Molecule: DSGQVLLE (OTHER INFORMATION: Description of Artificial Sequence:IL-16 antagonist peptide) [aa 351-358 of human CD4]
